Assays:
[1] = biological target: mouse HER3 on CHO-mHER3 cells (mouse) (UniProt Q61526); test: flow cytometry, transfected CHO cells
[2] = biological target: dog HER3 on CHO-dHER3 cells (dog); test: flow cytometry, transfected CHO cells
[3] = biological target: monkey (Macaca fascicularis) HER3 on CHO-fasHER3 cells (monkey (Macaca fascicularis)); test: flow cytometry, transfected CHO cells
[4] = biological target: human HER3 on CHO-hHER3 cells (human) (UniProt P21860); test: flow cytometry, transfected CHO cells
[5] = biological target: monkey MET on NIH3T3-fasMET cells (monkey) (UniProt A0M8R7); test: flow cytometry, transfected NIH3T3 cells
[6] = biological target: human MET on NIH3T3-hMET cells (human) (UniProt P08581); test: flow cytometry, transfected NIH3T3 cells
human MET on NIH3T3-hMET cells (human), sequence (P08581 25-1390 limits assumed): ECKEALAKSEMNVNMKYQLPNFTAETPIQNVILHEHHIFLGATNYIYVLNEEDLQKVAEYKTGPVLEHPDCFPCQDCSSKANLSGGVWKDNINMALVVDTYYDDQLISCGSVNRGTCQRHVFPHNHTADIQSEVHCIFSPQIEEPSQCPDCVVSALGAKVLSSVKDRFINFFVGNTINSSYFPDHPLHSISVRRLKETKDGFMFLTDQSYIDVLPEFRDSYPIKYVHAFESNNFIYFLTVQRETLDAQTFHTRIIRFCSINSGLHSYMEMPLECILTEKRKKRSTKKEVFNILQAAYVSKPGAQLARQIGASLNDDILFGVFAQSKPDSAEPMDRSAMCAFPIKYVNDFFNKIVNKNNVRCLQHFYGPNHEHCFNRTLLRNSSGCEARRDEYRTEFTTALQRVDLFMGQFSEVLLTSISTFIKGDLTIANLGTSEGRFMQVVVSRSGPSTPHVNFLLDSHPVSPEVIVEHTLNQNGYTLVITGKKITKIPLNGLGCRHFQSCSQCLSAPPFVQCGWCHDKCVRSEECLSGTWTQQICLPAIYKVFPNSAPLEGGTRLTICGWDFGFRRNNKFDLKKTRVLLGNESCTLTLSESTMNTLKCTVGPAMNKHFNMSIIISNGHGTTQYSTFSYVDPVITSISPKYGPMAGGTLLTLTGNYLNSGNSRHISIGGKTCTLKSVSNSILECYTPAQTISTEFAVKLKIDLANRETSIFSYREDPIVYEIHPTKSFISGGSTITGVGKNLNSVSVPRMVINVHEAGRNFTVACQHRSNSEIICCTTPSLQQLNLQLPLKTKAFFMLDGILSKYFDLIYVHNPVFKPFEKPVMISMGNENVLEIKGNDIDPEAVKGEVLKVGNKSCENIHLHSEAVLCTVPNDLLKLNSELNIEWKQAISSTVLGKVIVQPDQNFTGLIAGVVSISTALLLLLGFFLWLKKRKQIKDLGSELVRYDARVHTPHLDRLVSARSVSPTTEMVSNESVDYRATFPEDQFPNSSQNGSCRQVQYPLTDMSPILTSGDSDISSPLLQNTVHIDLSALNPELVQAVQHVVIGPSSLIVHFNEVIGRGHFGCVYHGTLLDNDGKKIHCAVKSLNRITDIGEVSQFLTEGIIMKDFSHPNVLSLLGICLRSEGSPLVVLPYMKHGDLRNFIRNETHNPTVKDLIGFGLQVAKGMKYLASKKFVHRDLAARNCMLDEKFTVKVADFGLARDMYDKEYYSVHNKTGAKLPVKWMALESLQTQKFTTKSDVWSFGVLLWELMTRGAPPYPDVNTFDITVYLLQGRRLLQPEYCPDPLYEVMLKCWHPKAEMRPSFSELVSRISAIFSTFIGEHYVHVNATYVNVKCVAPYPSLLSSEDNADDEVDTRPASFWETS

mouse HER3 on CHO-mHER3 cells (mouse), sequence (Q61526 20-641): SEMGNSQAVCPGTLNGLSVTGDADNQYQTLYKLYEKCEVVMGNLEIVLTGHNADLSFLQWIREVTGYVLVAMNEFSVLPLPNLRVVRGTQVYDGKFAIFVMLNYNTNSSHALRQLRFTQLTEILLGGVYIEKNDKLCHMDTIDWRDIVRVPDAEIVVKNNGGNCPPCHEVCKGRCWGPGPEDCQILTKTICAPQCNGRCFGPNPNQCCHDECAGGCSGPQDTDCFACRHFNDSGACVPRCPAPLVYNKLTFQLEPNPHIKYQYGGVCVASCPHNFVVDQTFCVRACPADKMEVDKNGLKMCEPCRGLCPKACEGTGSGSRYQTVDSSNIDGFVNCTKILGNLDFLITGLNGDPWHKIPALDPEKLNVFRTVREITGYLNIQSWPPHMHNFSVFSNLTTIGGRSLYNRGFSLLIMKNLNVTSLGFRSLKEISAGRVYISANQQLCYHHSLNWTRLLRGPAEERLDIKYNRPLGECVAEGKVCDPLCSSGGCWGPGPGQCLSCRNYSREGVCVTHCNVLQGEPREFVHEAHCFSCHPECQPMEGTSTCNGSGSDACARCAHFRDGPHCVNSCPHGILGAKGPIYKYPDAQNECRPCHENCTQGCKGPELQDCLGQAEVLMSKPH
monkey MET on NIH3T3-fasMET cells (monkey), sequence (A0M8R7 25-1381 S170N/I621T limits assumed): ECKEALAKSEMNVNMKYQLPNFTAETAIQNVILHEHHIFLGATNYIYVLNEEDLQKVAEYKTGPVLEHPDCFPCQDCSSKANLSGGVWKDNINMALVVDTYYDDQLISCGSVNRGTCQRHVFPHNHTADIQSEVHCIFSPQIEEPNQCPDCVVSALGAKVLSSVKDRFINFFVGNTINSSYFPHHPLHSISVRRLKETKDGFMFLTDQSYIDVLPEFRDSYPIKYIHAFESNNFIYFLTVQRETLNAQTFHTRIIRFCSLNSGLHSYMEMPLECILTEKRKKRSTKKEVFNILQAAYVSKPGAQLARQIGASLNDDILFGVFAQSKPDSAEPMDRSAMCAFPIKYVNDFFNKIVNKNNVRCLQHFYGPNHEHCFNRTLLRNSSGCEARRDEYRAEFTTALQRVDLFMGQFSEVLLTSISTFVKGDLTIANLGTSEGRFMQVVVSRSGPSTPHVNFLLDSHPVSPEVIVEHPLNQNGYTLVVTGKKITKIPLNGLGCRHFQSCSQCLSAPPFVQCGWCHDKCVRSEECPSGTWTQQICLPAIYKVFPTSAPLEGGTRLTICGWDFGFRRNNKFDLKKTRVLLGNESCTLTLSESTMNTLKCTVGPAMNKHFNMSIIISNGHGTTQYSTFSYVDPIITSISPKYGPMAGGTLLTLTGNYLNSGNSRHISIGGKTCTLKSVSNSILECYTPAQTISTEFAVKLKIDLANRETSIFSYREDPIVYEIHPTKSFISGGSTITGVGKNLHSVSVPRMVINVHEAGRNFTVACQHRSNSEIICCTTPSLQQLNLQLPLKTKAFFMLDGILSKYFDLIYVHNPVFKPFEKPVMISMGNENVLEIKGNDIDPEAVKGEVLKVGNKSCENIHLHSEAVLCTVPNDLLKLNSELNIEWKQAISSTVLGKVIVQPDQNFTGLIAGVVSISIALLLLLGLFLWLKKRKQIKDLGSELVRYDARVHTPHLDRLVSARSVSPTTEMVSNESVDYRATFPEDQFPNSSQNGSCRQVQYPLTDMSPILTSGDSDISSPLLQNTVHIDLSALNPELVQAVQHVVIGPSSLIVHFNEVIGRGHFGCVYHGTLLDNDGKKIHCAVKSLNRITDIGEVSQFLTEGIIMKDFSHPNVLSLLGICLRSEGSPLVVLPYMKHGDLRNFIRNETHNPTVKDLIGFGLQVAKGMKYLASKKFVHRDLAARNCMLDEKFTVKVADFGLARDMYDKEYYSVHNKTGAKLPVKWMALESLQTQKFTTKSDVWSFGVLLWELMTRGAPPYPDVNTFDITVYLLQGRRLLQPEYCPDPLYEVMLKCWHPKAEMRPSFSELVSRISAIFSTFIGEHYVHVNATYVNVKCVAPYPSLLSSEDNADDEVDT

Row | Substance | Percentage of Positive Cells [1] | Percentage of Positive Cells [2] | Percentage of Positive Cells [3] | Positive Cells [3] | Percentage of Positive Cells [4] | Positive Cells [4] | Positive Cells [5] | Positive Cells [6]
1 | NC | 0.2% | 1% | 0.2% | 3.2% | 0.4% | 2.1% | 0.5% | 3.9%
2 | NC + secondary antibody | 0.5% | 1.6% | 0.9% | 2.7% | 1.7% | 2.8% | 0.6% | 2.4%
